According to patent US20070077239A1 (BOARD OF TRUSTEES OF THE UNIVERSITY OF ILLINOIS, published 2007):
Ends that are not written are not given here.

How the values were obtained:
[1] = target: T1, human serum albumin (human, UniProt P02768 25-609); assay: HSA-Sepharose affinity chromatography of human lung extract, elution at pH 4.0, SDS-PAGE, MALDI-MS
T1 construct: also called HSA
Procedure: Protein purification and MALDI-MS: Human lung tissue (180 g) was washed, minced, and homogenized with 20 volumes of buffer A (20 mM Hepes/Tris/0.15 M NaCl/0.1 mM phenylmethylsufonylfluoride [PMSF]/30 pM benzamidine [BM], pH 7.4). The homogenate was centrifuged at 1000×g for 10 min and the supernatant was centrifuged at 100,000×g for 60 min. The pellet obtained was solubilized using 2.5% sodium cholate and 4 M urea (Tiruppathi et al., Proc. Natl. Acad Sci. USA, 93:250-254 (1996)). The solubilized extract was concentrated by ethanol precipitation and re-extracted with Triton X- 100 (Tiruppathi et al., Proc. Natl. Acad Sci. USA, 93:250-254 (1996)). The Triton X-100 concentration in the extract was adjusted to 0.2% and applied on HSAsepharose column (1×10 cm) pre-equilibrated with buffer-B (10 MM Tris-HCl, 0.5 MM EDTA, pH 7.4 containing 0.1 mM PMSF, 30 [M BM, and 0.2% Triton X-100). The column was washed and bound proteins were eluted with 20 ml of 0.1 M citrate buffer pH 4.0 containing 0.2% Triton X- 100. The proteins eluted were separated on SDS-PAGE, stained with Coomassie Brilliant Blue R-250 (CBBR-250) (FIG. 1A). The protein bands excised were digested with trypsin and peptides were analyzed using MALDI-MS at Yale University Biotechnology Resource Laboratory (New Haven, Conn.). The peptide masses were compared with known sequence using Profound search analysis on OWL database. […]

[2] = target: T2, rat serum albumin (rat, UniProt P02770 25-608); assay: binding of albumin to the immobilised peptide; details not given
T2 construct: also called RSA
T2 sequence (P02770 25-608 limits assumed): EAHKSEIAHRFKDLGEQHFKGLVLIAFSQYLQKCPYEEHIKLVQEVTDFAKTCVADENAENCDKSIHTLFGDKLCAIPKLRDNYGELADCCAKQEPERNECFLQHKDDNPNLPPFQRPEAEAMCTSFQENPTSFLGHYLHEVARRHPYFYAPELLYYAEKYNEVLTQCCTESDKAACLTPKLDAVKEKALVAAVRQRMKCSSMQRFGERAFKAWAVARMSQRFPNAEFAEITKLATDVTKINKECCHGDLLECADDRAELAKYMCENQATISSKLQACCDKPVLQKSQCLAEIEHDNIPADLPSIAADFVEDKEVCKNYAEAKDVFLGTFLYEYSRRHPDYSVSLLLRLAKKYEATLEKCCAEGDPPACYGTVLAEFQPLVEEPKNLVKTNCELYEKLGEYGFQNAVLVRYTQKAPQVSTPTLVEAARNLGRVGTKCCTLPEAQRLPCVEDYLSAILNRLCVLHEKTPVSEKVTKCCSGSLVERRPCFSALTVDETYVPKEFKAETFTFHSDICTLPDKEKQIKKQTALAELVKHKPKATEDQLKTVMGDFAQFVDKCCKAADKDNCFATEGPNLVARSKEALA

[3] = target: T1, human serum albumin; assay: dot-blot, 1.0 nmoles peptide per filter on nitrocellulose, 0.3 µM 125I-HSA, 2 h
Procedure: (§1) Peptides were immobilized on nitrocellulose membranes and non-specific binding was blocked with bovine γ-globulin (2 mg/ml in PBS) for 1 h at 22° C. Membranes were washed 2× with PBS and incubated with ¹²⁵I-labeled HSA ([…]) for 2 h at 22° C. Membranes were then washed 4× with PBS containing 0.05% Tween-20 (PBST) and autoradiography was performed. In some experiments, the membranes were directly counted to determine the membrane-associated radioactivity.
(§2) Peptides were immobilized on nitrocellulose membranes and then incubated with 1 ml of 0.3 μM ¹²⁵I-HSA in PBS for 2 h. Other details were described in Example 1. Non-specific binding was determined by incubating membranes with ¹²⁵I-HSA in the absence of any peptides. Results are shown mean±S.E. for three separate experiments made in triplicate.

[4] = target: T1, human serum albumin; assay: dot-blot, 2.5 nmoles peptide per filter on nitrocellulose, 0.3 µM 125I-HSA, 2 h
Procedure: as §1, §2

[5] = target: T1, human serum albumin; assay: dot-blot, 5.0 nmoles peptide per filter on nitrocellulose, 0.3 µM 125I-HSA, 2 h
Procedure: as §1, §2

[6] = target: T1, human serum albumin; assay: dot-blot, 10.0 nmoles peptide per filter on nitrocellulose, 0.3 µM 125I-HSA, 2 h
Procedure: as §1, §2

[7] = target: T1, human serum albumin; assay: 125I-HSA dot-blot on peptide immobilised on nitrocellulose
Procedure: as §1, §2

Row | Binder | binding result [1] | binding result [2] | 125I-HSA bound (pmoles/filter) [3] [pmoles/filter] | 125I-HSA bound (pmoles/filter) [4] [pmoles/filter] | 125I-HSA bound (pmoles/filter) [5] [pmoles/filter] | 125I-HSA bound (pmoles/filter) [6] [pmoles/filter] | binding result [7]
1 | MPO-HC (60 kDa protein isolated from human lung tissue) (enzyme, UniProt P05164 279-745, looked up, domain: heavy chain (HC); also called MPO heavy chain) VNCETSCVQQPPCFPLKIPPNDPRIKNQADCIPFFRSCPACPGSNITIRNQINALTSFVDASMVYGSEEPLARNLRNMSNQLGLLAVNQRFQDNGRALLPFDNLHDDPCLLTNRSARIPCFLAGDTRSSEMPELTSMHTLLLREHNRLATELKSLNPRWDGERLYQEARKIVGAMVQIITYRDYLPLVLGPTAMRKYLPTYRSYNDSVDPRIANVFTNAFRYGHTLIQPFMFRLDNRYQPMEPNPRVPLSRVFFASWRVVLEGGIDPILRGLMATPAKLNRQNQIAVDEIRERLFEQVMRIGLDLPALNMQRSRDHGLPGYNAWRRFCGLPQPETVGQLGTVLRNLKLARKLMEQYGTPNNIDIWMGGVSEPLKRKGRVGPLLACIIGTQFRKLRDGDRFWWENEGVFSMQQRQALAQISLPRIICDNTGITTVSKNNIFMSNSYPRDFVNCSTLPALNLASWREAS | binds | – | – | – | – | – | –
2 | MPO-WT-peptide (MPO-HC sequence 425-454) (C-terminal amide, Immobilised on nitrocellulose in the dot-blot; also called ADS) peptide: not shown | – | binds | 0.31 | 1.45 | 2.93 | 6.55 | –
3 | GLATELGSLNPGWDGEGLYQEAGGIVGAMV-NH2 [MPO-MT-peptide] | – | – | 0.01 | 0.11 | 0.14 | 0.19 | no binding
4 | EARKIV-NH2 (Synthetic hexapeptide from MPO-HC; also called EARKIV motif) [EARKIV peptide] | – | – | 0.05 | 0.06 | 0.08 | 0.11 | no binding
